Publication PMC4574351, “Tubulin cofactors and Arl2 are cage-like chaperones that regulate the soluble αβ-tubulin pool for microtubule dynamics” (eLife, 2015)

Columns and labels:
[1] = biological target: TBC-DEG:αβ-tubulin complex (S. cerevisiae | porcine) (UniProt P40987)
[2] = biological target: TBC-DEG:αβ-tubulin complex (S. cerevisiae | porcine) (UniProt P40987); remark: listed apart in the source
[3] = biological target: TBC-DEG:αβ-tubulin complex (S. cerevisiae | porcine) (UniProt P40987); experiment: SEC-MALS; WTC-03S5 column; purified TBC-DEG (subunits co-expressed and co-purified), αβ-tubulin, TBCC and their complexes; ternary complex with GDP·ALFx (wild type) or GTP (Q73L)
[4] = biological target: T1, Tubulin cofactor D (TBCD), S. cerevisiae Cin1p (S. cerevisiae), P40987; experiment: as above; conditions: remark: other sources report otherwise
T1 chain: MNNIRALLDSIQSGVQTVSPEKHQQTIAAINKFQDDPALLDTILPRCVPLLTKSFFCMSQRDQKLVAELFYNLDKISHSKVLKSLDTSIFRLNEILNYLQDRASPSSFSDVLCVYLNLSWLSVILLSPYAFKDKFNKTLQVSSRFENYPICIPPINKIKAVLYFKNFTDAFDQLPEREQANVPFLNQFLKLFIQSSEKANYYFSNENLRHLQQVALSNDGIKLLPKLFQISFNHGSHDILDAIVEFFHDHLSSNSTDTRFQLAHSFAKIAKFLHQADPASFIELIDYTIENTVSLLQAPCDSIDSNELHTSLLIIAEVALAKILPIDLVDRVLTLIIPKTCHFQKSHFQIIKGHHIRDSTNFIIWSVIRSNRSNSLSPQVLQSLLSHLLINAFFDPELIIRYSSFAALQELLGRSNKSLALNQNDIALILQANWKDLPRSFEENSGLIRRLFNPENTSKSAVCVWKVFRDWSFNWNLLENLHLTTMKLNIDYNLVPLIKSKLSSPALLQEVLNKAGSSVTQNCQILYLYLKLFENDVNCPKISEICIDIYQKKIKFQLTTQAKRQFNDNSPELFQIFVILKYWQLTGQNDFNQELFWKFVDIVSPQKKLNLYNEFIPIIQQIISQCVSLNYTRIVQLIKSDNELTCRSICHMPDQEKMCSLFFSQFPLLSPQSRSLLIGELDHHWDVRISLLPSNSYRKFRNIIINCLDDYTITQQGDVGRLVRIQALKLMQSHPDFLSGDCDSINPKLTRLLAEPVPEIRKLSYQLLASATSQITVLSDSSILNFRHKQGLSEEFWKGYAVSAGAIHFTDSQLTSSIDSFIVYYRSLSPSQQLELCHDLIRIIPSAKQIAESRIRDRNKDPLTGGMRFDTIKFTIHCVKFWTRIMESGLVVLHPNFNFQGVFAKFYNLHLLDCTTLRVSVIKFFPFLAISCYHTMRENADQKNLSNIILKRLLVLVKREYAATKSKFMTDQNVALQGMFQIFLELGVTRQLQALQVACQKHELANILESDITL

B1: Tubulin cofactor C (TBCC), S. cerevisiae Cin2p (natural protein)
chain: MDFTAKIKELERELSETSDYKTLQKKTISLRSELNTLSHSLTSYEKEHFSNDIENVLKSINAKLSESKGKKRLFSFKQKNSSSAVHKNVERTELANAPAYTTTLKKHYVLEKGDSAFENLEFCTVTSTTDYSGNSALSGSLCFRNITKCVINLQRIFFQTGSIFITDCTDSIIFLRSPSDKDFQIRLRDLKNCKILIEKLSPSIDCKQVVIIENCHKCIFNASTRDHLIIQDFSNPFQSEETEDNSAFAFEDFDICNKDTMQLFRAYL
[1]
  steady-state GTP hydrolysis kcat (malachite green), 1 μM TBC-DEG:1 μM TBCC:1 μM αβ-tub: 31300 M⁻¹ s⁻¹
[2]
  steady-state GTP hydrolysis kcat, equimolar αβ-tubulin and TBCC added to TBC-DEG (number as in the text): 0.0308 s⁻¹
[3]
  stoichiometry N: 1

B2: TBCC C-terminal β-helix domain (residues 100-267) (domain or fragment)
chain: YTTTLKKHYVLEKGDSAFENLEFCTVTSTTDYSGNSALSGSLCFRNITKCVINLQRIFFQTGSIFITDCTDSIIFLRSPSDKDFQIRLRDLKNCKILIEKLSPSIDCKQVVIIENCHKCIFNASTRDHLIIQDFSNPFQSEETEDNSAFAFEDFDICNKDTMQLFRAY
[1]
  steady-state GTP hydrolysis kcat, 1 μM TBC-DEG:1 μM TBCC-Cterm:1 μM αβ-tub: 18800 M⁻¹ s⁻¹

B3: Tubulin cofactor E (TBCE), S. cerevisiae Pac2p, P39937 1-518 (natural protein)
chain: MTYEIGDRLKIGGYFCTIKFIGVIKPWPSVKAYGVEWDDHSRGKHSGTIDDIHYFDVQIPNSGSFLKESKIKSPGVRRITFYEALSEKYGGSSNNINDLSIGNKRVEGLGFDELNARNKNYKKLRKIALRDSDVAILFQNQDELNRVIQNCVNVKDLDLSLNLFTNINSLCEFIEPLKNLESLNISQNKLLSGWDNLKEYDLSHIKTLRLSSCGLSYKHIGKLLKSFRTLKMLDLSYNNLTSAGIQNFENEIPCTLEELNISGNNLISFPLFPKNLTLKGLNVSNNQISRAPSIAIYSVESLDITDNKFKERSLIDDLNKTFPSLKNIHLSGNEFNYNGNYINVEEQATFYEVLARFDRVMVLNGSICDVKTRREAEMFFVSKVMNNELSYDTNLPRWSSLIKSYEIDMSKLSFNNERETRQSLVLKIKIRAGKKPSSDLDYWVLPSFTVRYVKSVICRKLNFDILNVKLFHENSEGMINEIKYNFRPISDFNVVNGDIIHVSSPVNNKSIQKVNSPS
[4]
  stoichiometry N: 1
